Laboratory results from patent US20090197805A1, “Insulin receptor antagonists and related compositions, uses and methods” (Novo Nordisk A/S, priority 2005, published 2009).
Ends that are not written are not given here.

Tests used:
IGF1 receptor = assay: competition binding assay with 125I-labeled IGF1 on the IGF1 receptor; reference IGF1
insulin receptor = assay: competition binding assay with 125I-labeled insulin on the insulin receptor; reference human insulin

## GSLDESFYDWFERQLGGGSGGSSLEEEWAQIQCEVWGRGCPSY-NH2 (cysteine pairing not given here) [PIRA S661 (…-amide)]
IGF1 receptor
  fold lower affinity than IGF1: 200000 fold
Insulin receptor
  affinity relative to human insulin: 48%
